We go through 1 substance from paper PMC10343166.

The target of experiment [1] is Puromycin-sensitive aminopeptidase, wild type, with C-terminal polyhistidine sequence (kinetic studies) (human) (UniProt P55786). The experiment in a line: competitive inhibition of enzyme activity (Dixon plots); apparent Ki from inhibition of Ala-4MβNA cleavage at increasing peptide concentrations; 20 mM HEPES pH 7.0, 2 mM BME, 37°C; 20 μM (PSA^wt) or 100 μM (PSA^F433A) Ala-4MβNA; triplicate.

Experiment [2] concerns the target Puromycin-sensitive aminopeptidase F433A mutant, with C-terminal polyhistidine sequence (human) (UniProt P55786). Described as above.

Puromycin-sensitive aminopeptidase F433A mutant, with C-terminal polyhistidine sequence (human), sequence (P55786 whole entry F433A): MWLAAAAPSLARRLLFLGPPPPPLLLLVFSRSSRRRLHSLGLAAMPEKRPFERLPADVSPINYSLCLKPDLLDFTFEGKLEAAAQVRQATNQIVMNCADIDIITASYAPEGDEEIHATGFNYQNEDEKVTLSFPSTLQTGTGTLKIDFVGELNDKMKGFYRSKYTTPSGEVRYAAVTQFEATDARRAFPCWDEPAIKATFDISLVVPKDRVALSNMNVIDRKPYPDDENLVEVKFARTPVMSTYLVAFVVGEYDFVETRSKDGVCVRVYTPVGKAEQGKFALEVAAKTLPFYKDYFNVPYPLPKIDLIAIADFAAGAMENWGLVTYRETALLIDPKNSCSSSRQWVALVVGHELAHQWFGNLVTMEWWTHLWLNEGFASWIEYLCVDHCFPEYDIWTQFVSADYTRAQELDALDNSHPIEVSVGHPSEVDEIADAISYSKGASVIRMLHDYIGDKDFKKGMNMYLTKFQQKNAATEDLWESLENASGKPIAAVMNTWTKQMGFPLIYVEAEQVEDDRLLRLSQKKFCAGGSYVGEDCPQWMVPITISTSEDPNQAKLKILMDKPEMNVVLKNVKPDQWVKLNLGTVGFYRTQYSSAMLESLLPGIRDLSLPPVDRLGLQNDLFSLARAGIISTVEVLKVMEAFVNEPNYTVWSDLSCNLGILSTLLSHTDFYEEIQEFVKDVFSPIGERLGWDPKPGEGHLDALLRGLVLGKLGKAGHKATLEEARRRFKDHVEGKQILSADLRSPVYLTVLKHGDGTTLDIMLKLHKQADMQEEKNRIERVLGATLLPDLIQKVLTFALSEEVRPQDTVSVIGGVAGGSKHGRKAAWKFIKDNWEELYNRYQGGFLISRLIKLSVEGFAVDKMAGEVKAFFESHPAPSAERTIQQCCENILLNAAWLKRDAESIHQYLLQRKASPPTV
Puromycin-sensitive aminopeptidase, wild type, with C-terminal polyhistidine sequence (kinetic studies) (human), sequence (P55786 whole entry): as the sequence (P55786 whole entry F433A) above, with A433F counted along it

Consider Dynorphin A(1–17) (peptide), for which the results for the Ki in experiment [1] and in experiment [2] were 440 nM and 2600 nM, respectively.
